Experimental findings from PMC2728291 (Journal of molecular biology, 2009) are described below.

To fix the notation:
B1: BLIP Asp49Ser mutant (natural protein)
chain: AGVMTGAKFTQIQFGMTRQQVLDIAGAENCETGGSFGDSIHCRGHAAGSYYAYATFGFTSAAADAKVDSKSQEKLLAPSAPTLTLAKFNQVTVGMTRAQVLATVGQGSCTTWSEYYPAYPSTAGVTLSLSCFDVDGYSSTGFYRGSAHLWFTDGVLQGKRQWDLV
B2: BLIP Phe142Gly mutant (natural protein)
chain: AGVMTGAKFTQIQFGMTRQQVLDIAGAENCETGGSFGDSIHCRGHAAGDYYAYATFGFTSAAADAKVDSKSQEKLLAPSAPTLTLAKFNQVTVGMTRAQVLATVGQGSCTTWSEYYPAYPSTAGVTLSLSCFDVDGYSSTGGYRGSAHLWFTDGVLQGKRQWDLV
B3: BLIP Glu31Gln mutant (natural protein)
chain: AGVMTGAKFTQIQFGMTRQQVLDIAGAENCQTGGSFGDSIHCRGHAAGDYYAYATFGFTSAAADAKVDSKSQEKLLAPSAPTLTLAKFNQVTVGMTRAQVLATVGQGSCTTWSEYYPAYPSTAGVTLSLSCFDVDGYSSTGFYRGSAHLWFTDGVLQGKRQWDLV
B4: BLIP Trp112Arg mutant (natural protein)
chain: AGVMTGAKFTQIQFGMTRQQVLDIAGAENCETGGSFGDSIHCRGHAAGDYYAYATFGFTSAAADAKVDSKSQEKLLAPSAPTLTLAKFNQVTVGMTRAQVLATVGQGSCTTRSEYYPAYPSTAGVTLSLSCFDVDGYSSTGFYRGSAHLWFTDGVLQGKRQWDLV
B5: BLIP Glu73Tyr mutant (natural protein)
chain: AGVMTGAKFTQIQFGMTRQQVLDIAGAENCETGGSFGDSIHCRGHAAGDYYAYATFGFTSAAADAKVDSKSQYKLLAPSAPTLTLAKFNQVTVGMTRAQVLATVGQGSCTTWSEYYPAYPSTAGVTLSLSCFDVDGYSSTGFYRGSAHLWFTDGVLQGKRQWDLV

For the test, the target named is TEM-1 β-lactamase (UniProt P62593 24-286). The test is described as follows: enzyme inhibition assay.
Sequence of TEM-1 β-lactamase (P62593 24-286): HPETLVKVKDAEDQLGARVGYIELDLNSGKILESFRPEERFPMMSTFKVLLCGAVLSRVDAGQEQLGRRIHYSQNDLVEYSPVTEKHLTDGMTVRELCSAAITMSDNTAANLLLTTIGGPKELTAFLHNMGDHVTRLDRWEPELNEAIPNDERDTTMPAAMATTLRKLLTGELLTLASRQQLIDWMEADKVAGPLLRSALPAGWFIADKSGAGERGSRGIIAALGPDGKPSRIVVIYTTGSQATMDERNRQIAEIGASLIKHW
Molecule B1 displayed a Ki of 16 nM.

With B2, the affinity corresponds to a Ki of 12 nM.

Take B3: the Ki came out at 1.4 nM.

In turn, B4 gave a Ki of 3.9 nM.

The molecule B5 returned an inhibitory constant (Ki) of 3.7 nM.

By Ki is commonly meant the equilibrium dissociation constant of an inhibitor or competing ligand from its target.
